In US20210380703A1 (RIGEL PHARMACEUTICALS, published 2021):
Numbering of substitutions follows the chain as printed.

B1: 369_H08 (antibody, V domains shown)
VH: EVQLLESGGGLVQPGGSLRLSCAASGFTFSSYSMNWVRQAPGKGLEWVAGINYNSGYKSYADSVKGRFTISRDNSKNTLYLQMNSLRAEDTAVYYCARGATWHDTHLDYWGQGTLVTVSS
VL: DIQMTQSPSSLSASVGDRVTITCRASQSILSYVNWYQQKPGKAPKLVIYAATSLASGVPSRFSGSGSGTDFTLTISSLQPEDFATYYCQQSYESPLTFGGGTKVEIK
B2: 376_B06 (antibody, V domains shown)
VH: B1 VH with S59G, G99S
VL: B1 VL with S31T, V33L, V47L, L54R, E93D, S94L
B3: 372_D04 (antibody, V domains shown)
VH: B1 VH with G50N, K58T, S59G, G99S
VL: B1 VL with S31T, V33L, V47L, A55H, E93D, S94L
B4: 370_E07 (antibody, V domains shown)
VH: B1 VH with S30D, G50N, S55G, K58T, S59G, G99S
VL: B1 VL with S31T, V33L, V47L, L54R, E93D, S94N
B5: 376_H11 (antibody, V domains shown)
VH: B1 VH with S30D, A49S, G50N, S55G, K58T, S59G, T101N, H106A
VL: B1 VL with L30S, S31R, V33L, V47L, A51V
B6: 371_E12 (antibody, V domains shown)
VH: B1 VH with S30D, A49S
VL: B1 VL with V33L, V47L, E93D, S94T
B7: 370_C06 (antibody, V domains shown)
VH: B1 VH with G50N, S55G
VL: B1 VL with S31T, V47L, T52S, A55Q, E93S, S94T
B8: 376_F06 (antibody, V domains shown)
VH: B1 VH with S33G, A49S, S55G, K58T, S59G, T101N
VL: B1 VL with S31T, L54R, S94T
B9: 373_B08 (antibody, V domains shown)
VH: B1 VH with S30D, G50N, S59G, G99S
VL: B1 VL with S31T, V33L, S94N
B10: 373_F07 (antibody, V domains shown)
VH: B1 VH with A49S
VL: B1 VL with V33L, V47L, S94T
B11: 370_E04 (antibody, V domains shown)
VH: B1 VH with G50N, S55G, S59G
VL: B1 VL with S31T, V33L, V47L, A51V, A55H, S94T
B12: 375_F02 (antibody, V domains shown)
VH: B1 VH with G50S, K58T, T101N
VL: B1 VL with V33L, V47L, L54R, E93D
B13: 374_B03 (antibody, V domains shown)
VH: B1 VH with S30D, A49S, S55G, K58T, T101N, H106A
VL: B1 VL with S31T, V33L, L54R, E93D
B14: 375_E10 (antibody, V domains shown)
VH: B1 VH with A49S, S55G, K58T, T101N, H106A
VL: B1 VL with V33L, L54R, E93D, S94N
B15: 365_F07 (antibody, V domains shown)
VH: B1 VH with A49S, G50N, S55G, G99S, H106A
VL: B1 VL with L54R, E93D, S94L
B16: 373_G08 (antibody, V domains shown)
VH: B1 VH with S30D, A49S, G50N, S55G, K58T, T101N, H106A
VL: B1 VL with S31T, V33L, V47L, E93D
B17: 374_C12 (antibody, V domains shown)
VH: B1 VH with S55G, T101N, H106A
VL: B1 VL with S31T, V33L, L54R, Y92D, E93N
B18: 365_D05 (antibody, V domains shown)
VH: B1 VH with S30D, S55G, K58T, G99S
VL: B1 VL with S31T, V47L, L54R, E93N
B19: 376_F01 (antibody, V domains shown)
VH: B1 VH with S31D, S55G, T101N, H106A
VL: not shown
B20: 375_H05 (antibody, V domains shown)
VH: B1 VH with A49S, G50N, S55G, K58T, S59G, T101N, H106A
VL: B1 VL with V47L, L54R, E93D, S94T
B21: 372_B09 (antibody, V domains shown)
VH: B1 VH with A49S, G50S, K58T
VL: B1 VL with S31T, V33L, V47L, L54R, S94T
B22: 367_G07 (antibody, V domains shown)
VH: B1 VH with S30D, G50N, S55G, K58T, S59G, G99S
VL: B1 VL with S31T, V47L, L54R, E93D, S94N
B23: 376_C08 (antibody, V domains shown)
VH: B1 VH with S30D, K58T, S59G, T101N
VL: not shown
B24: 374_G08 (antibody, V domains shown)
VH: B1 VH with S30D, A49S, S55G, K58T, T101N, H106A
VL: B1 VL with S31T, L54R, E93D
B25: 374_C09 (antibody, V domains shown)
VH: B1 VH with S30D, S33G, A49S, G50S, S55G, S59G, T101N
VL: B1 VL with L30V, V33L, L54R, S94L
B26: 370_D03 (antibody, V domains shown)
VH: B1 VH with G50S, S55G, K58T
VL: B1 VL with L30I, S31T, V33L, V47L, L54R, E93D, S94L
B27: 374_D05 (antibody, V domains shown)
VH: B1 VH with S30D, A49S, K58T, S59G, T101N
VL: B1 VL with S31T, V33L, V47L, L54R, E93D, S94T
B28: 375_G05 (antibody, V domains shown)
VH: B1 VH with S55G, K58T, T101N, H106A
VL: B1 VL with L30V, V33L, V47L, A51V, L54R, E93D
B29: 371_F09 (antibody, V domains shown)
VH: B1 VH with S55G, K58T
VL: B1 VL with S31T, V33L, V47L, L54R, E93D, S94N
B30: 370_F12 (antibody, V domains shown)
VH: B1 VH with S31D, G50N, S55G, K58T, S59G
VL: B1 VL with V33L, V47L, T52S, A55Q, E93D
B31: 373_H03 (antibody, V domains shown)
VH: B1 VH with A49S, T101N, H106A
VL: B1 VL with V33L, V47L, A51T, L54R, S94N
B32: 374_D10 (antibody, V domains shown)
VH: B1 VH with S33G, N35H, G50S, S55G, K58T, T101N
VL: B1 VL with S31T, V47L, L54R, E93D, S94N
B33: 366_A05 (antibody, V domains shown)
VH: B1 VH with K58T, S59G, G99S
VL: B1 VL with S31T, E93N, S94T
B34: 370_C07 (antibody, V domains shown)
VH: B1 VH with G50N, S55G
VL: B1 VL with V33L, V47L, L54R, A55H
B35: 369_G07 (antibody, V domains shown)
VH: B1 VH with S55G, K58T, G99S
VL: B1 VL with S31T, L54R, E93D, S94N
B36: 374_C01 (antibody, V domains shown)
VH: B1 VH with S30D, S33G, A49S, T101N, H106A
VL: B1 VL with S31T, V33L, V47L, L54R, S94T
B37: 367_A01 (antibody, V domains shown)
VH: B1 VH with G50S, S55G, K58T, S59G, G99S
VL: B1 VL with S31T, V33L, V47L, L54R, E93D, S94L
B38: 375_A12 (antibody, V domains shown)
VH: B1 VH with A49S, T101N, H106A
VL: B1 VL with V33L, A51V, L54R, S94T
B39: 376_H01 (antibody, V domains shown)
VH: B1 VH with S31D, S55G, S59G, T101N, H106A
VL: B1 VL with S31T, V33L, V47L, L54R, E93S, S94T
B40: 369_H12 (antibody, V domains shown)
VH: B1 VH with S55G
VL: B1 VL with L30V, S31T, L54R, E93D
B41: 373_C07 (antibody, V domains shown)
VH: B1 VH with S30D, K58T, T101N
VL: B1 VL with S31T, V33L, L54R, S94T
B42: 375_A07 (antibody, V domains shown)
VH: B1 VH with S30D, A49S, G50S, K58T, S59G, T101N
VL: B1 VL with S31T, V33L, V47L, L54R, E93D, S94T
B43: 371_B01 (antibody, V domains shown)
VH: B1 VH with S30D, A49S, G50N, K58T, S59G
VL: B1 VL with V47L, E93D, S94L
B44: 369_A10 (antibody, V domains shown)
VH: B1 VH with S30D, K58T, S59G, G99S
VL: B1 VL with V33L, V47L, L54R, S94L

Legend:
[1] = molecular target: ACVR2A on primary human myotubes (human, UniProt P27037 20-513); assay: cell-based or functional assay
Human ACVR2A (on cells) = Human ACVR2A (on cells) (human, UniProt P27037 20-513); assay: cell-based or functional assay
Human ACVR2A (on cells), sequence (P27037 20-513): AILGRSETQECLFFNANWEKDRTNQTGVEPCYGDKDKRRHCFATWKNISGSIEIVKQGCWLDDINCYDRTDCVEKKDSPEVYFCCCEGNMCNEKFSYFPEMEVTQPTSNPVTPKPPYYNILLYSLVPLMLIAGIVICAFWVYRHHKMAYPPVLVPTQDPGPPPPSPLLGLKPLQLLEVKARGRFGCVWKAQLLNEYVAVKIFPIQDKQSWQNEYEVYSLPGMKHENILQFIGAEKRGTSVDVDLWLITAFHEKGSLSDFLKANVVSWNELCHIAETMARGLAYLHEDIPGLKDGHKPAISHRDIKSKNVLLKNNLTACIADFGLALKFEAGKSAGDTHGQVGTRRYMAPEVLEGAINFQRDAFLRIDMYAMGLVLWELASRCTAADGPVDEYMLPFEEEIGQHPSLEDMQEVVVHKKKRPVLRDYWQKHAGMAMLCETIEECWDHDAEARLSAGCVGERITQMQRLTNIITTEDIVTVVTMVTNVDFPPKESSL

ACVR2A on primary human myotubes, sequence (P27037 20-513): as above

Phospho-SMAD3 Human Skeletal Muscle GDF8 [1] | Phospho-SMAD3 Human Skeletal Muscle GDF8 (AlphaLisa, primary human myotubes) (Human ACVR2A (on cells)) | Binder
0.0308 |  | B1
 | 0.0042 | B2
 | 0.0114 | B3
 | 0.0046 | B4
0.0042 |  | B5
0.0374 |  | B6
0.0111 |  | B7
0.0544 |  | B8
 | 0.0102 | B9
0.0069 |  | B10
0.0136 |  | B11
0.0076 |  | B12
0.027 |  | B13
0.0091 |  | B14
 | 0.011 | B15
0.0057 |  | B16
0.027 |  | B17
 | 0.0209 | B18
0.595 |  | B19
0.0346 |  | B20
0.0182 |  | B21
 | 0.0068 | B22

Phospho-SMAD3 Human Skeletal Muscle GDF8 [1] | Phospho-SMAD3 Human Skeletal Muscle GDF8 (AlphaLisa, primary human myotubes) (Human ACVR2A (on cells)) | Binder
0.0605 |  | B23
0.034 |  | B24
0.189 |  | B25
0.0165 |  | B26
0.0177 |  | B27
0.0052 |  | B28
0.0311 |  | B29
0.0066 |  | B30
0.0129 |  | B31
0.126 |  | B32
 | 0.0244 | B33
0.0044 |  | B34
 | 0.012 | B35
1.11 |  | B36
 | 0.0065 | B37
0.0469 |  | B38
0.0562 |  | B39
0.0303 |  | B40
0.0048 |  | B41
0.014 |  | B42
0.0076 |  | B43
 | 0.0076 | B44
